Assay results published in patent US20240376185A1 (SMIVET B V, published 2024).

Assays:
[1] = biological target: T1, tetanus neurotoxin (TeNT), authentic tetanus holotoxin (Clostridium tetani, UniProt P04958 2-1315); assay: competition ELISA on TeNT, binder biotinylated; competitor SVT08L
Target sequence in this assay (P04958 2-457 limits assumed, chain 1 of 2): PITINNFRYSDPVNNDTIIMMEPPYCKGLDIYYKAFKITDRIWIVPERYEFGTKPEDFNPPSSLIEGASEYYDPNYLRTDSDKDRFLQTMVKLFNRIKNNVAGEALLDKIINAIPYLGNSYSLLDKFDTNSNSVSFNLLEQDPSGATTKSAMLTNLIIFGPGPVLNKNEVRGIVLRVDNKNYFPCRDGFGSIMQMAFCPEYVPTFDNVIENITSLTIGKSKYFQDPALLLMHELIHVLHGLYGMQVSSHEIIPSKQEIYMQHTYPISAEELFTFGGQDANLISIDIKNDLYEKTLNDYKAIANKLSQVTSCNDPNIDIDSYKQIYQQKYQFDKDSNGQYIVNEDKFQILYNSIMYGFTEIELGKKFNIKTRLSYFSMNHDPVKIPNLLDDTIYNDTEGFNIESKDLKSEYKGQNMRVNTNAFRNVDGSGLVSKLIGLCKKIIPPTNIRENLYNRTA
Target sequence in this assay (P04958 458-1315 limits assumed, chain 2 of 2): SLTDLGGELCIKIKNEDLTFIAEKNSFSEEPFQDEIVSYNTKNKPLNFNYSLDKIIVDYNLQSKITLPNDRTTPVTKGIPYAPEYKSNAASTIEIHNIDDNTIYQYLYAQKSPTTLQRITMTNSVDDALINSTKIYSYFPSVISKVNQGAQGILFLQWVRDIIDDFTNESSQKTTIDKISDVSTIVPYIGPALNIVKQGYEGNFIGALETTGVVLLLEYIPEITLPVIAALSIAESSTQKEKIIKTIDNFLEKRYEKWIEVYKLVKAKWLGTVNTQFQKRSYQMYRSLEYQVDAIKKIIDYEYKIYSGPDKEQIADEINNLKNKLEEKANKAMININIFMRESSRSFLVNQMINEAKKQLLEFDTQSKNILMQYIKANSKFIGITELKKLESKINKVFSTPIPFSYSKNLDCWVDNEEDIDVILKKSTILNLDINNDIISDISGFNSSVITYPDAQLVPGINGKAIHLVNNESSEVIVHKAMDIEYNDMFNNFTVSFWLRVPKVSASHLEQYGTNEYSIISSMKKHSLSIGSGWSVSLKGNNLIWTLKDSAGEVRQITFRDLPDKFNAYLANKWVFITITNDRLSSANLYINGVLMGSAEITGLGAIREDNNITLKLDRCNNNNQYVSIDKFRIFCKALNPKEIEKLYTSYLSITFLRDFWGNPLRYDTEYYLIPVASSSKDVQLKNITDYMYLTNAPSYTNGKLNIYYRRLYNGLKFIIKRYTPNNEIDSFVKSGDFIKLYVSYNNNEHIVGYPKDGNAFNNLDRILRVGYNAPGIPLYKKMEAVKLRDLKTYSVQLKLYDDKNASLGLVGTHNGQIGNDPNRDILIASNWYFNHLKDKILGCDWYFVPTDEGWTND

[2] = biological target: T1, tetanus neurotoxin (TeNT), authentic …; assay: GT1b-TeNT inhibition ELISA, unlabelled binder
Target sequence in this assay (P04958 2-457 limits assumed, chain 1 of 2): as the sequence (P04958 2-457 limits assumed, chain 1 of 2) above
Target sequence in this assay (P04958 458-1315 limits assumed, chain 2 of 2): as the sequence (P04958 458-1315 limits assumed, chain 2 of 2) above

[3] = biological target: T1, tetanus neurotoxin (TeNT), authentic …; assay: competition ELISA on TeNT, binder biotinylated; competitor SVT22L
[4] = biological target: T1, tetanus neurotoxin (TeNT), authentic …; assay: competition ELISA on TeNT, binder biotinylated; competitor mAb 6F57
Target sequence in this assay (P04958 2-457 limits assumed, chain 1 of 2): as the sequence (P04958 2-457 limits assumed, chain 1 of 2) above
Target sequence in this assay (P04958 458-1315 limits assumed, chain 2 of 2): as the sequence (P04958 458-1315 limits assumed, chain 2 of 2) above

[5] = biological target: T1, tetanus neurotoxin (TeNT), authentic …; assay: competition ELISA on TeNT, binder biotinylated; competitor mAb 6E7
Target sequence in this assay (P04958 2-457 limits assumed, chain 1 of 2): as the sequence (P04958 2-457 limits assumed, chain 1 of 2) above
Target sequence in this assay (P04958 458-1315 limits assumed, chain 2 of 2): as the sequence (P04958 458-1315 limits assumed, chain 2 of 2) above

[6] = biological target: T1, tetanus neurotoxin (TeNT), authentic …; assay: ELISA, directly coated TeNT, biotinylated binder
Target sequence in this assay (P04958 2-457 limits assumed, chain 1 of 2): as the sequence (P04958 2-457 limits assumed, chain 1 of 2) above
Target sequence in this assay (P04958 458-1315 limits assumed, chain 2 of 2): as the sequence (P04958 458-1315 limits assumed, chain 2 of 2) above

[7] = biological target: T1, tetanus neurotoxin (TeNT), authentic …; assay: ELISA, TeNT captured with cAb-TT2, unlabelled binder
Target sequence in this assay (P04958 2-457 limits assumed, chain 1 of 2): as the sequence (P04958 2-457 limits assumed, chain 1 of 2) above
Target sequence in this assay (P04958 458-1315 limits assumed, chain 2 of 2): as the sequence (P04958 458-1315 limits assumed, chain 2 of 2) above

[8] = biological target: T1, tetanus neurotoxin (TeNT), authentic …; assay: competition ELISA on TeNT, binder biotinylated; competitor SVT15L-3FW4M
[9] = biological target: T1, tetanus neurotoxin (TeNT), authentic …; assay: ELISA, TeNT captured with cAb-TT2, biotinylated binder
[10] = biological target: T1, tetanus neurotoxin (TeNT), authentic …; assay: competition ELISA on TeNT, binder biotinylated; competitor SVT13L
[11] = biological target: T1, tetanus neurotoxin (TeNT), authentic …; assay: competition ELISA on TeNT, binder biotinylated; competitor SVT34L
[12] = biological target: T1, tetanus neurotoxin (TeNT), authentic …; assay: competition ELISA on TeNT, binder biotinylated; competitor SVT06L
[13] = biological target: T1, tetanus neurotoxin (TeNT), authentic …; assay: GT1b-TeNT inhibition ELISA, EC at A450 0.59
[14] = biological target: T1, tetanus neurotoxin (TeNT), authentic …; assay: competition ELISA on TeNT, binder biotinylated; competitor SVT16L
[15] = biological target: T1, tetanus neurotoxin (TeNT), authentic …; assay: ELISA, directly coated TeNT, unlabelled binder
[16] = biological target: T1, tetanus neurotoxin (TeNT), authentic …; assay: competition ELISA on TeNT, binder biotinylated; competitor SVT03L
[17] = biological target: T1, tetanus neurotoxin (TeNT), authentic …; assay: competition ELISA on TeNT, binder biotinylated; competitor mAb 14F5
[18] = biological target: T2, recombinant tetanus toxin fragment C (rTTC) (Clostridium tetani, UniProt P04958 865-1315); assay: ELISA, directly coated rTTC, unlabelled binder
T2 sequence: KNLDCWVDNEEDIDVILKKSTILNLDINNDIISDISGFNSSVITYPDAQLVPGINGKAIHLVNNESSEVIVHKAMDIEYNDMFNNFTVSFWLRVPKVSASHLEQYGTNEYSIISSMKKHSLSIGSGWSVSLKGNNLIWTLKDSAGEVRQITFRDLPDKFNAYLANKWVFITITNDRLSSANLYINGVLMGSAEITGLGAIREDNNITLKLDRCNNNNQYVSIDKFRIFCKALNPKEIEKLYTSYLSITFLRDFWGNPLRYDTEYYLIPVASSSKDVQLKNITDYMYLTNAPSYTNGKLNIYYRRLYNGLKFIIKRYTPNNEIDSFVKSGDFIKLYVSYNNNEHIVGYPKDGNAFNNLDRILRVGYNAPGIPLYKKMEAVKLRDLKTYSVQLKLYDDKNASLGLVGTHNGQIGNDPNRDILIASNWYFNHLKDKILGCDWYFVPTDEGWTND

[19] = biological target: T1, tetanus neurotoxin (TeNT), authentic …; assay: competition ELISA on TeNT, binder biotinylated; competitor mAb 11n185
[20] = biological target: T1, tetanus neurotoxin (TeNT), authentic …; assay: competition ELISA on TeNT, binder biotinylated; competitor SVT02L
[21] = biological target: T1, tetanus neurotoxin (TeNT), authentic …; assay: competition ELISA on TeNT, binder biotinylated; competitor SVT15L
[22] = biological target: T3, tetanus neurotoxin (TeNT), authentic tetanus holotoxin (Clostridium tetani, UniProt P04958 2-1315); assay: GT1b-TeNT inhibition ELISA
[23] = biological target: T3, tetanus neurotoxin (TeNT), authentic …; assay: bridging ELISA: coated TeNT, SDA, biotinylated TeNT, StrepPO (bivalent binding)
[24] = biological target: T3, tetanus neurotoxin (TeNT), authentic …; assay: ELISA: directly coated TeNT, goat anti-llama Ig PO
[25] = biological target: T3, tetanus neurotoxin (TeNT), authentic …; assay: GT1b-TeNT inhibition ELISA; remark: listed apart in the source
[26] = biological target: T3, tetanus neurotoxin (TeNT), authentic …; assay: bridging ELISA: coated TeNT, SDA, biotinylated TeNT, StrepPO (bivalent binding); remark: listed apart in the source
[27] = biological target: T3, tetanus neurotoxin (TeNT), authentic …; assay: ELISA: directly coated TeNT, goat anti-llama Ig PO; remark: listed apart in the source
[28] = biological target: T3, tetanus neurotoxin (TeNT), authentic …; assay: ELISA: directly coated TeNT, anti-his6 PO
[29] = biological target: T3, tetanus neurotoxin (TeNT), authentic …; assay: ELISA: directly coated TeNT, anti-his6 PO; remark: listed apart in the source

Binder	% inhibition of binding [1]	minimal absorbance at 450 nm [2]	% inhibition of binding [3]	% inhibition of binding [4]	% inhibition of binding [5]	EC resulting in A450 0.4 [6]	maximal absorbance at 450 nm [6]	EC resulting in A450 0.15 [7]	maximal absorbance at 450 nm [7]	% inhibition of binding [8]	EC resulting in A450 0.2 [9]	maximal absorbance at 450 nm [9]	% inhibition of binding [10]	% inhibition of binding [11]	% inhibition of binding [12]	concentration giving A450 of 0.59 [13]	% inhibition of binding [14]	EC resulting in A450 0.2 [15]	maximal absorbance at 450 nm [15]	% inhibition of binding [16]	also measured
SVT08L (VHH) VHH: QVQLQESGGGSVQAGGSLRLSCTASEFSYNDYTIAWFRRAAGKGRVEDGEGVASITTSYDRAYDNRIHYGDSVKGRFTISRDNAKNTVYLQMTNLNPSDTAVYYCGLDITPPGGIGASLTEGFLFDYWGQGTQVTVSS	96%	0.486	6%	50%	66%	0.4 ng/mL	1.57	3.6 ng/mL	0.36	12%	0.52 ng/mL	1.2	5%	8%	95%	0.411 µg/mL	8%	2.2 ng/mL	1.37	0%	% inhibition of binding [17]: 3%; maximal absorbance at 450 nm [18]: 0.502; % inhibition of binding [19]: 4%; % inhibition of binding [20]: 7%; % inhibition of binding [21]: 6%
SVT06L (VHH) VHH: QVQLQESGGGSVQAGGSLRLSCTASELSYDDYTIAWFRRAAGEGRVEDGEGVASITKSYDRAYDNKINYGHSVKGRFTISRDNAKNTVYLQMTDLLPSDTAVYYCALDITPPGGVGASLTEGFLFDYWGQGTQVTVSS	97%	0.481	3%	53%	67%	0.39 ng/mL	1.51	2.6 ng/mL	0.409	12%	0.37 ng/mL	1.2	7%	11%	96%	0.317 µg/mL	-3%	1.7 ng/mL	1.39	-3%	% inhibition of binding [17]: 11%; maximal absorbance at 450 nm [18]: 0.543; % inhibition of binding [19]: 5%; % inhibition of binding [20]: 11%; % inhibition of binding [21]: 14%
SVT13L (VHH) VHH: QVQLQESGGGLVQAGGSLRLSCAVSGTNFDDYAIGWFRQAPGKRREAVACISKTDGVTRYGNGVKGRFTISSDEARNTVFLQMNDLKDEDTAIYYCIGDFKSCGMGYKPIDHWGRGIQVTVSS	13%	0.126	92%	0%	2%	0.57 ng/mL	1.48	4.1 ng/mL	0.487	8%	1.3 ng/mL	1.06	95%	91%	1%	0.082 µg/mL	91%	1.9 ng/mL	1.54	1%	% inhibition of binding [17]: 5%; maximal absorbance at 450 nm [18]: 1.1; % inhibition of binding [19]: 2%; % inhibition of binding [20]: 7%; % inhibition of binding [21]: -19%
SVT15L (VHH) VHH: QVQLQESGGGLVQTGGSLRLSCRASGRAFANYHFGWFRQAPGKDREFVASISWKGGSTYYANFALGRFTSSVDRAESSVYLQMSGLTPEDTATYYCAAHDGGDWNYHTGMDYWGKGILVTVSS	15%	0.14	2%	4%	6%	2.8 ng/mL	1.4	5.7 ng/mL	0.477	96%	5.7 ng/mL	0.825	2%	10%	1%	0.072 µg/mL	5%	2.8 ng/mL	1.34	-5%	% inhibition of binding [17]: 7%; maximal absorbance at 450 nm [18]: 0.528; % inhibition of binding [19]: 0%; % inhibition of binding [20]: 6%; % inhibition of binding [21]: 96%
SVT15L-3FW4M (VHH) VHH: QVQLQESGGGLVQTGGSLRLSCRASGRAFANYHFGWFRQAPGKDREFVASISWKGGSTYYANFALGRFTSSVDRAESSVYLQMSGLTPEDTATYYCAAHDGGDWNYHTGMDYWGQGTQVTVSS																					minimal absorbance value (GT1b-TeNT inhibition) [22]: 0.19 A450; Effective SDA Concentration at A450 0.3 [23]: > 1000 ng/mL; maximal absorbance value [24]: 0.35 A450; Effective SDA Concentration at A450 0.56 [25]: 31 ng/mL; maximal absorbance value [26]: 0.2 A450; Effective SDA Concentration at A450 0.15 [27]: 6 ng/mL; maximal absorbance value [28]: 0.19 A450; Effective SDA Concentration at A450 0.15 [29]: 26 ng/mL
